This note sets out measurements from patent publication US20080089860A1, “Therapeutic compositions and methods useful in treating cancer” (priority 2006, published 2008).

The target of one data set is T1, PRL-3 (Homo sapiens, UniProt O75365).
T1 construct: made in house; host or cells: E. coli DH5a
As to the kind of experiment: In vitro PTPase assay, recombinant PRL-3. Format: biochemical. The conditions noted are these: DiFMUP substrate. The text has this: Sodium stibogluconate, suramin, sodium orthovanadate and GST fusion protein of SHP-1 have been described previously (Pathak et al., J. Imumol. 167, 3391 (2001)). Meglumine antimonate was obtained from Aventis. cDNAs of human PRL-1, PRL-2 and PRL-3 coding region were derived by RT-PCR from H9 cells (Safai, et al., Lancet 1, 1438 (1984)) and inserted in frame into the pGEX vector. cDNA of PRL-1R86 was generated by recombinant DNA technique using PRL-1 cDNA as template following established procedures (Jiao, et al., Mol. Cell. Biol. 16, 6985 (1996)). GST fusion proteins of the PRL phosphatases were prepared from DH5a bacteria transformed with the pGEX fusion protein constructs as described previously (Yi, et al., Mol. Cell. Biol. 12, 836 (1992)). cDNAs encoding the PRLs tagged at the N-termini with the Flag epitope (Castrucci, et al., J. Virol. 66, 4647 (1992)) were generated via recombinant DNA technique, sequenced to confirm their identities and cloned into the pBabepuro vector (Yang, et al., Blood 91, 3746 (1998)). Anti-Flag monoclonal antibody (M2, Sigma) was purchased from a commercial source. A synthetic phosphotyrosine peptide (Arg-Arg-Leu-Ile-Glu-Asp-Ala-Gle-Tyr-Al- -a-Ala-Arg-Gly (SEQ ID NO: 3), wherein the tyrosine is phosphorylated; UBI) and DiFMUP (6,8-difluoro-4-methylumbelliferyl phosphate, Molecular Probes) were purchased as substrates for PTPase assays.
(§1) In vitro PTPase assays were used to determine the effects of compounds on recombinant PTPases, following established procedures using a synthetic phosphotyrosine peptide or DiFMUP as the substrate (Pathak et al., J. Imumol. 167, 3391 (2001)). Briefly, individual PTPases (0.1 µg/reaction) in 50 µL of PTPase buffer (50 mM Tris, pH 7.4) were incubated at 22° C. for 10 minutes or as indicated in the absence or presence of inhibitory compounds. Substrates (0.2 mM phosphotyrosine peptide) were then added and allowed to react at 22° C. for 18 hrs. PTPase activity of individual reactions was measured by adding 100 µL of malachite green solution (UBI) and then quantifying the amounts of free phosphate cleaved by the PTPase from the peptide substrate by spectrometry (OD660 nm). PTPase assays using DiFMUP as a substrate were conducted following a previously described procedure (Matter, et al., Biochem. Biophys. Res. Comm. 283, 1061 (2001)). Relative PTPase activities were calculated based on the formula: (PTPase activity in the presence of an inhibitory compound/PTPase activity in the absence of the compound)× 100%. To assess the reversibility of PTPase inhibition, GST fusion proteins of the PTPases bound on glutathione beads (Pharmacia) were pre-incubated with cold Tris buffer (50 mM Tris, pH 7.0) or Tris buffer containing the inhibitor at 4° C. for 30 minutes. The beads were then washed three times in cold Tris buffer or not washed prior to subjecting to in vitro PTPase assays.

The next data set has as its target T2, SHP-1 (Mus musculus, UniProt P29351).
T2 construct: made in house
As to the kind of experiment: In vitro PTPase assay, GST/SHP-1. Format: biochemical. As for the experimental part:
In vitro PTPase activities were measured using the commercial protein tyrosine phosphatase assay kit (Upstate Biotechnology, Inc. (“UBI”)) following established procedure known to one of skill in the art. […] Briefly, 0.01 µg of GST/PTPase fusion proteins was incubated in 50 µl of Tris buffer (10 mM Tris, pH 7.4) containing different concentrations of inhibitors or chemicals (0-1,000 µg/ml) at 22° […] 100 µl of Malachite Green solution was added and incubated for 5 minutes, and the absorbance at 660 nm was measured after 5 minutes.
To assess the reversibility of inhibition of SHP-1 by PTPase inhibitors, GST/SHP-1 fusion protein bound on glutathione beads were pre-incubated in cold Tris buffer or Tris buffer containing the PTPase inhibitors at 4° C. for 30 minutes. The beads were then either subjected to in vitro PTPase assays or washed 3 times in Tris buffer then subjected to in vitro PTPase assays.
as §1, with “Briefly,” for “In vitro PTPase assays were used to determine the effects of compounds on recombinant PTPases, following established procedures using a synthetic phosphotyrosine peptide or DiFMUP as the substrate (Pathak et al., J. Imumol. 167, 3391 (2001)). Briefly,”, “PTPase assays using DiFMUP as a substrate were conducted following a previously described procedure (Matter, et al., Biochem. Biophys. Res. Comm. 283, 1061 (2001)).” left out

The test system of another data set is GSTm8. Description: In vitro PTPase assay, GSTm8. Format: biochemical. The conditions noted are these: 3-4 μg/ml or 10-100 μg/ml. The text has this: (§2) In vitro PTPase assays were used to determine the effects of levamisole (Sigma), pentamidine (American Pharmaceutical Partners, Inc.), and ketoconazole (Sigma) on recombinant PTPases, following established procedures (Pathak et al., J. Imumol. 167, 3391 (2001); Pathak et al., Leukemia 16, 2285 (2002), Yi et al., J. Immunol. 169, 5978 (2002)) using a synthetic phosphotyrosine peptide or DiFMUP as the substrate as detailed above in section I.A.2.

For another data set, the target named is T3, MKP1 (Homo sapiens, UniProt P28562).
T3 construct: made in house; host or cells: E. coli DH5a
T3 sequence (P28562 13-367 limits assumed): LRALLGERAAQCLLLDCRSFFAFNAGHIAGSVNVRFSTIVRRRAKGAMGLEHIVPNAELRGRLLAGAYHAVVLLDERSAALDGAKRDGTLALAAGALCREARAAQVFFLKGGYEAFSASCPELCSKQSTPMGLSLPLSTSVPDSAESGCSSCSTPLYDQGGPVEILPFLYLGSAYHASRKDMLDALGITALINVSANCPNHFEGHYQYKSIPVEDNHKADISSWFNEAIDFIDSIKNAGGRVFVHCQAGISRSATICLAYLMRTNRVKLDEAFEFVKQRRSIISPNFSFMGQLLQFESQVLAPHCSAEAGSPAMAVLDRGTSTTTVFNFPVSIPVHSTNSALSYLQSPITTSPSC
As to the kind of experiment: In vitro PTPase assay, GST/MKP1. The conditions noted are these: section VII comparison. It is filed as biochemical. Here is the method: In vitro PTPase activities were measured using the commercial protein tyrosine phosphatase assay kit (Upstate Biotechnology, Inc. (“UBI”)) following established procedure known to one of skill in the art. This assay measures the in vitro dephosphorylation of a synthetic phosphotyrosine peptide of the sequence Arg-Arg-Leu-Ile-Glu-Asp-Ala-Gle-T- -yr-Ala-Ala-Arg-Gly, wherein the tyrosine is phosphorylated (SEQ ID NO: 3). Briefly, 0.01 µg of GST/PTPase fusion proteins was incubated in 50 µl of Tris buffer (10 mM Tris, pH 7.4) containing different concentrations of inhibitors or chemicals (0-1,000 µg/ml) at 22° C. for 10 minutes, followed by addition of 0.2 mM of the phosphotyrosine peptide and incubation at 22° C. for 18 hours. 100 µl of Malachite Green solution was added and incubated for 5 minutes, and the absorbance at 660 nm was measured after 5 minutes.
as §2

The test system of data set [1] is T4, synthetic phosphotyrosine peptide Arg-Arg-Leu-Ile-Glu-Asp-Ala-Gle-Tyr-Ala-Ala-Arg-Gly, wherein the tyrosine is phosphorylated.
T4 sequence: RRLIEDAEYAARG

Data set [2] addresses T5, synthetic phosphotyrosine peptide Arg-Arg-Leu-Ile-Glu-Asp-Ala-Gle-Tyr-Ala-Ala-Arg-Gly, wherein the tyrosine is phosphorylated.
T5 chain: RRLIEDAEYAARG

T2 sequence (P29351 whole entry): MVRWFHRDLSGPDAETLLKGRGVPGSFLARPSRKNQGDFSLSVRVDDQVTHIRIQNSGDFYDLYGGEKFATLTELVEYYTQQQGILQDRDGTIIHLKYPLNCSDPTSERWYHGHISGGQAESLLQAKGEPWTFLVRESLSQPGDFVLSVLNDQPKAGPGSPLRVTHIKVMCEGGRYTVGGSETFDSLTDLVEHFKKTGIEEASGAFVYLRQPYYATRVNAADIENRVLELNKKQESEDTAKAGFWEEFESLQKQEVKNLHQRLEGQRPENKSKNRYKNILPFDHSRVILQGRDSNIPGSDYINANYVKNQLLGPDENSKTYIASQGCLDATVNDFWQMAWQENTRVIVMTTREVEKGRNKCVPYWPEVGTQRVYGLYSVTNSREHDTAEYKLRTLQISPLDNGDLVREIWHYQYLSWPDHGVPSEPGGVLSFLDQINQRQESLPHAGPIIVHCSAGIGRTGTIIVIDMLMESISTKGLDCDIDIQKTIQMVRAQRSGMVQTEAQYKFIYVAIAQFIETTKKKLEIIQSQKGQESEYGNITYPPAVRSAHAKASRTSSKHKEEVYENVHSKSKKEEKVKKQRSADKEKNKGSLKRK
T1 sequence (O75365 whole entry): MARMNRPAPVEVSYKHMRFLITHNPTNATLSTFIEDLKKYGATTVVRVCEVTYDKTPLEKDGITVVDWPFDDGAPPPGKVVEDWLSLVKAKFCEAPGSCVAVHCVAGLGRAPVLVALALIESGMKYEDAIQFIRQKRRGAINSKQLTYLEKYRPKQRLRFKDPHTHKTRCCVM

Turning to `Cc1ccc(C(=O)Nc2ccc(S(=O)(=O)O)c3cc(S(=O)(=O)O)cc(S(=O)(=O)O)c23)cc1NC(=O)c1cccc(NC(=O)Nc2cccc(C(=O)Nc3cc(C(=O)Nc4ccc(S(=O)(=O)O)c5cc(S(=O)(=O)O)cc(S(=O)(=O)O)c45)ccc3C)c2)c1` [Suramin], at PRL-3, the “inhibition of PRL-3 compared with sodium stibogluconate” value was “less effective”. Also, the “inhibition of SHP-1 compared with sodium stibogluconate” value against SHP-1 (comparable conditions) is given as “less effective”. The “inhibition of GST/SHP-1 after washing (reversibility)” value against SHP-1 (pre-incubated with inhibitor, beads washed) is “almost completely removed by the washing process”.
With `c1ccc([C@H]2CN3CCSC3=N2)cc1` [levamisole], the “inhibitory activity against GSTm8” value with GSTm8 is “no obvious inhibitory activity”. At MKP1, the “inhibition of MKP1” value is “substantial inhibition”. In addition, at SHP-1 (3-4 μg/ml or 10-100 μg/ml), the “inhibitory activity against SHP-1” value was “no obvious inhibitory activity”.
In the case of `[Na+].[Na+].[Na+].[O]=[V]([O-])([O-])[O-]` [sodium orthovanadate], the “inhibition of PRL-3 compared with sodium stibogluconate” value on PRL-3 was “less effective”.
GST fusion protein of SHP-1: in data set [1], the “PTPase activity against the peptide substrate (660 nm absorbance, malachite green)” value was 660 nm absorbance approximately 0.6 above background (0.03).
Same read-out and setting: for GST fusion protein of SHP-2 the value was 660 nm absorbance approximately 0.6 above background (0.03); for “GST fusion protein of mitogen-activated protein kinase phosphatase 1 (MKP1)”, 660 nm absorbance approximately 0.6 above background (0.03).
On to “GST fusion protein of protein tyrosine phosphatase 1B (PTP1B)”, for which the “PTPase activity against the peptide substrate (660 nm absorbance, malachite green)” value in data set [1] is reported as 660 nm absorbance approximately 0.6 above background (0.03).

B1: GST fusion protein of PRL-1R86 (protein)
chain: MARMNRPAPVEVTYKNMRFLITHNPTNATLNKFIEELKKYGVTTIVRVCEATYDTTLVEKEGIHVLDWPFDDGAPPSNQIVDDWLRLVKIKFREEPGCCIAVHCVAGLGRAPVLVALALIEGGMKYEDAVQFIRQKRRGAFNSKQLLYLEKYRPKMRLRFKDSNGHRNNCCIQ
For B1, in data set [2], the “in vitro PTPase activity” value is listed as “showed in vitro PTPase activity similar to that of wild type PRL-1”.

B2: Flag-PRL-1R86 (protein)
chain: MARMNRPAPVEVTYKNMRFLITHNPTNATLNKFIEELKKYGVTTIVRVCEATYDTTLVEKEGIHVLDWPFDDGAPPSNQIVDDWLRLVKIKFREEPGCCIAVHCVAGLGRAPVLVALALIEGGMKYEDAVQFIRQKRRGAFNSKQLLYLEKYRPKMRLRFKDSNGHRNNCCIQ
With B2, the “phosphatase activity of anti-Flag immunocomplexes (WM9 transfectants)” value in data set [2] is listed as “showed phosphatase activities well above the background activity of the vector control cells”.

B3: Flag-PRL-1 (protein)
chain: MARMNRPAPVEVTYKNMRFLITHNPTNATLNKFIEELKKYGVTTIVRVCEATYDTTLVEKEGIHVLDWPFDDGAPPSNQIVDDWLSLVKIKFREEPGCCIAVHCVAGLGRAPVLVALALIEGGMKYEDAVQFIRQKRRGAFNSKQLLYLEKYRPKMRLRFKDSNGHRNNCCIQ
As for B3, in data set [2], the “PTPase activity of anti-Flag immunocomplexes (NIH3T3 transfectants)” value is on record as “a markedly higher PTPase activity (about 23 folds) over that of control transfectants” and the “phosphatase activity of anti-Flag immunocomplexes (WM9 transfectants)” value is “showed phosphatase activities well above the background activity of the vector control cells”.
